This note sets out measurements from PMC5663475, “SAV1 promotes Hippo kinase activation through antagonizing the PP2A phosphatase STRIPAK” (eLife, 2017).

Non-standard residues stand in square brackets, D forms with d. Residues, ends and D or L forms follow the SMILES beside them. pT = C[C@@H](OP(=O)(O)O)[C@H](N)C(=O)O

One series has as its target T1, MOB1^33-216 (Homo sapiens, UniProt Q9H8S9).
T1 construct: recombinant MOB1^33-216 and pT378-MST2 peptides
T1 sequence (Q9H8S9 33-216): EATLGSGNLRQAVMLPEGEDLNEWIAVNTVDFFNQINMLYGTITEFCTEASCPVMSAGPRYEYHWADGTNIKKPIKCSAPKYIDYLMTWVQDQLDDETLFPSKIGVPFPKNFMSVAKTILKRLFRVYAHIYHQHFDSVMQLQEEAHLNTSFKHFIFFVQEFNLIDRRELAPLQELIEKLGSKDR
Nature of the series: ITC, MOB1^33-216 with phospho-MST2 peptides. Format: binding. As to conditions: MicroCal iTC200, 20 °C, 20 mM Tris pH 8.0, 50 mM NaCl, 50 µM protein titrated with 500 µM peptide, measured as controls. As for the experimental part:
The binding affinities between purified recombinant human SLMAP-FHA (residues 1–140) and the phospho-MST2 peptides were measured using a MicroCal iTC200 calorimeter (GE Healthcare) at 20 °C. The binding affinities between recombinant MOB1^33-216 and pT378-MST2 peptides were measured as controls. Ratio of protein to peptide concentration was 1:10 for each experiment. A 50 µM SLMAP-FHA or MOB1^33-216 sample in the buffer containing 20 mM Tris, pH 8.0, 50 mM NaCl was titrated with 500 µM of phospho-MST2 peptide in the same buffer. All phospho-MST2 peptides were synthesized with the following sequences: pT325-MST2^320-329, ELDSHpTMVKT; pT336-MST2^331-340, VESVGpTMRAT; pT378-MST2^373-382, EEEDGpTMKRN; and pT378-MST2^371-401, DEEEEDGp[…]. Due to low solubility of pT325-MST2^320-329, 5% (v/v) DMSO was added to both protein and peptide buffers. Peptide concentration was measured using the spectrophotometer at wavelength λ = 205 nm. In all cases, thermograms were integrated using NITPIC method ([Keller et al., 2012]), imported to the SEDPHAT software ([Zhao et al., 2015]), and binding-model fits (A + B < ->AB) were made by fixing the protein concentration adjustment coefficients and allowing the software to adjust peptide concentration by a correction coefficient, as it is not 100% accurate due to the nature of the concentration measurements. […]
(In general: ITC needs no label: the signal is the heat of the interaction.)

Another series concerns the target SLMAP (UniProt Q14BN4). Kind of series: anti-FLAG IP, anti-SLMAP blot. As to conditions: reference: MST2 wild type; sites T325,T336,T378.
The target of another series is human SAV1 WW2 (human) (UniProt Q9H4B6). Nature of the series: SEC; recombinant SAV1 WW1 and WW2 on a Superdex 75 gel filtration column.
The target in series [1] is PP2A A subunit (recombinant) (human) (UniProt P30153).
The next series has as its system PP2A A-C. Kind of series: In vitro PP2A inhibition assay (dephosphorylation of MST2 pT180). Format: biochemical. As to conditions: 0.1 µM PP2A A-C, 1 µM MST2 KD, quantitative Western blot. As for the experimental part:
For PP2A A-C phosphatase inhibition assays, 0.1 µM PP2A A-C was mixed with the indicated concentrations of SAV1^1-90 and incubated at room temperature for 15 min. […] After 30 min incubation, 15 µl reaction mixture was quenched by the addition of the same volume of 2X SDS sample buffer and boiled for 5 min. The remaining pT180 of MST2 was analyzed by quantitative Western blot using a specific antibody against pT180 of MST2.

The subject of the next series is PP2A A subunit. Nature of the series: Gel filtration co-fractionation of SAV1^1-90 with PP2A A subunit. Format: binding. As to conditions: Superdex 200 gel filtration; PP2A A : SAV1^1-90 1:6 molar ratio; 20 mM Tris pH 8.0, 50 mM NaCl, 1 mM TCEP. As for the experimental part: The N-terminal fragment of SAV1^1-90 was purified by denaturation method using 8 M urea according to the manufacturer’s instructions (Qiagen). SAV1^1-90 was refolded overnight at 4°C in a buffer containing 50 mM Tris (pH 7.5), 150 mM NaCl, 5 mM MgCl2, and 1 mM DTT. To obtain the PP2A A and SAV1^1-90 complex, PP2A A was mixed with refolded SAV1^1-90 at a 1:6 molar ratio and further purified by a Superdex 200 column equilibrated with a buffer containing 20 mM Tris (pH 8.0), 50 mM NaCl, and 1 mM TCEP. For comparison, PP2A A and SAV1^1-90 alone was run under the same condition, respectively.
On the technique in general: SEC sorts molecules by how far they enter the pores of the column.

Series [2] deals with the molecule itself. Nature of the series: AUC + SEC; sedimentation velocity at 4 °C, 50,000 rpm, 20 mM Tris pH 8.0, 200 mM NaCl, 5 mM MgCl2; gel filtration on Superdex 200; co-expressed and co-purified MST2-FL/SAV1 fragment complexes.
Series [3] concerns MST2. Nature of the series: MST2-SAV1 autophosphorylation (pT180). Format: biochemical, human. The following applies: 2.5 µM MST2-SAV1 complex, dephosphorylated by 0.5 µM PP2A A-C, then 5 µM okadaic acid; 2 mM ATP, anti-pT180 blot; at least two independent experiments. As for the experimental part: For assaying MST2-SAV1 autophosphorylation, 2.5 µM MST2-SAV1-ΔN198 or MST2-SAV1-ΔN268 was dephosphorylated by 0.5 µM PP2A A-C core complex for 30 min at room temperature. Okadaic acid was then added to a final concentration of 5 µM and the reaction mixture was incubated on ice for another 30 min. The reaction mixture was diluted by a ratio of 1:5 at room temperature with a kinase reaction buffer containing 50 mM Tris (pH 7.5), 150 mM NaCl, 5 mM MgCl2, 2 mM ATP, and 1 mM DTT. At different time intervals, autophosphorylation was terminated by adding 2X SDS loading buffer and boiling for 5 min in 100 °C water bath. All samples were separated by SDS-PAGE and blotted by a specific antibody against pT180 of MST2.

In series [4] the test system is MST2. Nature of the series: In vitro MST2 kinase assay using MOB1 as substrate. The class given is biochemical, human. As to conditions: 0.5 nM MST2, 0.4 µM MOB1, pT35-MOB1 quantitative Western blot; two biological replicates. As for the experimental part:
For in vitro kinase assays, 0.4 μM MST2-FL or MST2-ΔL was incubated in the kinase reaction buffer containing 50 mM Tris (pH 7.5), 150 mM NaCl, 10 mM MgCl2, 1 mM ATP, 1 mM DTT, and 0.1 μCi/μl γ-^32P-ATP with 40 μM myelin basic protein (MBP). At different time intervals, an aliquot of reaction mixture was added with equal volume of 2X SDS sample buffer and followed by boiling for 5 min in 100 °C water bath. All samples were separated by SDS-PAGE and analyzed by autoradiography. For in vitro kinase assays using MOB1 as substrate, 0.5 nM MST2 was incubated with 0.4 µM recombinant purified MOB1 in the kinase reaction buffer. The phosphorylated MOB1 was analyzed by quantitative Western blotting using a specific antibody against pT35 of MOB1 (Cell Signaling). The signals were quantified with the Odyssey LI-COR imaging system. For in vitro kinase assays using GST-MST2 D146N as substrate, the kinase reaction was performed with MST2 KD for 30 min at room temperature.

The target in series [5] is T2, MST2-FL (recombinant full-length MST2) (human, UniProt Q13188 1-491).
T2 construct: MST2, human, full length; also called full-length (FL) MST2; source: E. coli BL21 (DE3)-T1R, purified; alone or co-expressed and co-purified with SAV1 C-terminal fragments
T2 sequence (looked up): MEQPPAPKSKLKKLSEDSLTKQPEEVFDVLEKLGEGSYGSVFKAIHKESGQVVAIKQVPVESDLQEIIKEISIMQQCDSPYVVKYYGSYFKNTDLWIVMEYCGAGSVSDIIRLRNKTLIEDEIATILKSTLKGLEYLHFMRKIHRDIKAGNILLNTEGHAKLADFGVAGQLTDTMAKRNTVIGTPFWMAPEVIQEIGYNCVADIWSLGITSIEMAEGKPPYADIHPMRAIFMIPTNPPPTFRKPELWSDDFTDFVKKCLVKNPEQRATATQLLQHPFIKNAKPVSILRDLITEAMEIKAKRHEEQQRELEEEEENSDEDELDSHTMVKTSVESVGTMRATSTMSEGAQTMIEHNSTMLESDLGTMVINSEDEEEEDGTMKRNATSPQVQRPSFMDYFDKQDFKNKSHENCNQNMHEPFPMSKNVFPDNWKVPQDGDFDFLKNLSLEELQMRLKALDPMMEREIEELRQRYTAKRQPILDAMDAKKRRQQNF
Kind of series: pull-down; GST-SLMAP FHA on glutathione-Sepharose beads as bait, purified MST2 proteins in TBS (50 mM Tris pH 7.5, 150 mM NaCl) with 0.05% Tween, 2 h; Coomassie-stained gel. As to conditions: both partners purified.

Sequence of PP2A A subunit (recombinant) (human) (P30153 whole entry): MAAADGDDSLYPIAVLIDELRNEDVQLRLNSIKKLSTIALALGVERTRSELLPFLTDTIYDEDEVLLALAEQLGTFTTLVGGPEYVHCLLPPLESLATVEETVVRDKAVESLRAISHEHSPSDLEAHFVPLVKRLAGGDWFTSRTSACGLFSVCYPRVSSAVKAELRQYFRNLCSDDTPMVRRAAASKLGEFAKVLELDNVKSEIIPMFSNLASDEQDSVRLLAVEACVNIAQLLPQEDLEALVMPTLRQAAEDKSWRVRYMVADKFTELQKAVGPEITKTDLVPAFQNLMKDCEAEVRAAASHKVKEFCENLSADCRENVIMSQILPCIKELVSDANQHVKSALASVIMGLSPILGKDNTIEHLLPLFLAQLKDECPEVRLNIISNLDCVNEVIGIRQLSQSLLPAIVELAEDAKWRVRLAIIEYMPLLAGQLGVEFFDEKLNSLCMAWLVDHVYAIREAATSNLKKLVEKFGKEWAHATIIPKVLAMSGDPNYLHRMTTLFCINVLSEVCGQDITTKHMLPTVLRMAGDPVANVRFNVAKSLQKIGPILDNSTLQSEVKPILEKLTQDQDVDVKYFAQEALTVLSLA

As for `CSCC[C@H](NC(=O)[C@H](Cc1ccccc1)NC(=O)[C@H](CO)NC(=O)[C@@H]1CCCN1C(=O)[C@H](CCCNC(=N)N)NC(=O)[C@H](CCC(N)=O)NC(=O)[C@@H](NC(=O)[C@H](CCC(N)=O)NC(=O)[C@@H]1CCCN1C(=O)[C@H](CO)NC(=O)[C@@H](NC(=O)[C@H](C)NC(=O)[C@H](CC(N)=O)NC(=O)[C@H](CCCNC(=N)N)NC(=O)[C@H](CCCCN)NC(=O)[C@H](CCSC)NC(=O)[C@@H](NC(=O)CNC(=O)[C@H](CC(=O)O)NC(=O)[C@H](CCC(=O)O)NC(=O)[C@H](CCC(=O)O)NC(=O)[C@H](CCC(=O)O)NC(=O)[C@H](CCC(=O)O)NC(=O)[C@@H](N)CC(=O)O)[C@@H](C)OP(=O)(O)O)[C@@H](C)O)C(C)C)C(=O)N[C@@H](CC(=O)O)C(=O)N[C@@H](Cc1ccc(O)cc1)C(=O)N[C@@H](Cc1ccccc1)C(=O)N[C@@H](CC(=O)O)C(=O)N[C@@H](CCCCN)C(=O)N[C@@H](CCC(N)=O)C(=O)N[C@@H](CC(=O)O)C(=O)O` [pT378-MST2^371-401] (H-DEEEEDG[pT]MKRNATSPQVQRPSFMDYFDKQD-OH), binding on MOB1^33-216 was characterised by a dissociation constant (Kd) of 0.296 µM.
As to MST2 (from UniProt Q13188) MST2 3TA, in the series with SLMAP, the “binding against the reference” value is given as “lost”.
With “human SAV1 WW2 (from UniProt Q9H4B6 1-383) (domain or fragment)”, the stoichiometry N (as a rule, the number of molecules, sites or subunits per partner or assembly) in the series with human SAV1 WW2 (human) stood at 2.
Turning to `CSCC[C@H](NC(=O)[C@@H](NC(=O)CNC(=O)[C@H](CC(=O)O)NC(=O)[C@H](CCC(=O)O)NC(=O)[C@H](CCC(=O)O)NC(=O)[C@@H](N)CCC(=O)O)[C@@H](C)OP(=O)(O)O)C(=O)N[C@@H](CCCCN)C(=O)N[C@@H](CCCNC(=N)N)C(=O)N[C@@H](CC(N)=O)C(=O)O` [pT378-MST2^373-382] (H-EEEDG[pT]MKRN-OH), at MOB1^33-216, the Kd (as a rule, the free concentration of one partner at which half of the binding sites on the other are occupied at equilibrium, for simple one-to-one binding) is 9.95 µM.

B1: SAV1^1-90 (recombinant) (domain or fragment)
chain: MLSRKKTKNEVSKPAEVQGKYVKKETSPLLRNLMPSFIRHGPTIPRRTDICLPDSSPNAFSTSGDVVSRNQSFLRTPIQRTPHEIMRRES
For the molecule B1, in series [1], the dephosphorylation of MST2 pT180 (1 µM MST2 kinase domain) by 0.1 µM PP2A A-C core in vitro, SAV1 1-90 at the indicated concentrations amounted to 100 µM.

B2: SAV1 1–90: N-terminal fragment of SAV1 (residues 1–90), recombinant, refolded (protein)
chain: B1 chain
modifications: left off: FLAG, end not stated, kept
With B2, the “inhibition of PP2A A-C dephosphorylation of MST2 pT180” value in the series on PP2A A-C (15 min pre-incubation with SAV1^1-90 at room temperature, 20 mM Tris pH 8.0, 100 mM NaCl, 30 min) is “blocked the dephosphorylation of MST2 pT180 by PP2A A-C”. The “concentration needed for PP2A A-C inhibition” value in the series on PP2A A-C ("Very high and non-physiological concentrations" needed) came out at 100 µM. Besides, the “co-fractionation with recombinant PP2A A subunit” value with PP2A A subunit was “co-fractionated”.

B3: SAV1-ΔN198 (domain or fragment, human, UniProt Q9H4B6 199-383, looked up)
chain: LPLPPGWSVDWTMRGRKYYIDHNTNTTHWSHPLEREGLPPGWERVESSEFGTYYVDHTNKKAQYRHPCAPSVPRYDQPPPVTYQPQQTERNQSLLVPANPYHTAEIPDWLQVYARAPVKYDHILKWELFQLADLDTYQGMLKLLFMKELEQIVKMYEAYRQALLTELENRKQRQQWYAQQHGKNF
notes: SAV1, human, N-terminal 198 residues deleted (WW1, WW2 and SARAH domains); also called SAV1 ∆N198; SAV1 fragment containing both WW domains and the SARAH domain; source: E. coli BL21 (DE3)-T1R, co-expressed with MST2, purified (glutathione-Sepharose, TEV, Superdex 200); not shown: GST, N-terminal, cleaved
Take B3: the binding result in series [2] is recorded as “binds”.

B4: SAV1 ∆N198: SAV1 mutant which contains WW1/2 and SARAH domains (protein)
chain: B3 chain
modifications: left off: GST, N-terminal, cleaved
notes: SAV1 mutant which contains WW1/2 and SARAH domains
Consider B4, for which the “MST2 activation (T180 autophosphorylation) in vitro” value in the series with MST2 [3] is listed as “could support MST2 auto-activation”. Moreover, in the series on MST2 [4], the “stimulation of MST2 kinase activity toward MOB1” value was “did not stimulate the MST2 kinase activity toward MOB1”.

B5: GST-SLMAP FHA (residues 1–140) (domain or fragment, human, UniProt Q14BN4 1-140, looked up)
chain: MPSALAIFTCRPNSHPFQERHVYLDEPIKIGRSVARCRPAQNNATFDCKVLSRNHALVWFDHKTGKFYLQDTKSSNGTFINSQRLSRGSEESPPCEILSGDIIQFGVDVTENTRKVTHGCIVSTIKLFLPDGMEARLRSD
notes: SLMAP, human, FHA domain, residues 1-140; also called GST-SLMAP FHA fusion protein; not shown: GST, N-terminal, kept
Consider B5, for which, in series [5], the binding result is listed as “binds”.
